The source of these data is publication PMC9456337.

Assay [1] has as its target recombinant cytochrome c552 (CytC552) from Thioalkalivibrio paradoxus (Thioalkalivibrio paradoxus ARh 1). Nature of the assay: NMR titration; oxidized 13C/15N-labelled CytC552 titrated with TcDH; intensity of the 1H signal of the heme HAB atom fitted with the Morrison equation; 1H/15N-HSQC chemical shift perturbation at saturating TcDH; slow exchange; 50 mM sodium phosphate, pH 7.0, 303 K.

Assay [2] addresses thiocyanate dehydrogenase (TcDH) from Thioalkalivibrio paradoxus ARh 1 (Thioalkalivibrio paradoxus ARh 1).
Assay [3] has the same target. Briefly: ITC; aliquots (2.6 µL) of CytC552 injected into a 0.2-mL cell with 9.3 µM TcDH; 25 °C; 25 mM borate buffer, pH 9.5; fitted assuming either one or two binding sites of CytC552 in the TcDH dimer. On the technique in general: In ITC the heat of successive injections is recorded.

One may read the Kd as the equilibrium constant for the complex coming apart. What is called stoichiometry N is the number of molecules, sites or subunits per partner or assembly. Take “thiocyanate dehydrogenase (TcDH) from Thioalkalivibrio paradoxus ARh 1 (enzyme)”: in assay [1], the Kd was 2000 nM and the stoichiometry N worked out at 1.
With “recombinant cytochrome c552 (CytC552) from Thioalkalivibrio paradoxus (natural protein)”, in assay [2], the specific activity of TcDH in thiocyanate oxidation with CytC552 as electron acceptor, pH optimum 9.5 came to 7.3 µmol/min/mg. The same substance returned a Kd in assay [3] of 1800 nM.
